Results reported in patent publication EP4480965A1, “TRANSFERRIN RECEPTOR-BINDING MOLECULES, CONJUGATES THEREOF AND THEIR USES TO PREVENT OR TREAT CNS DISEASES” (Vect-Horus, priority 2023, dated 2024).
Read-outs that look alike come from different tables or passages of the source.

Key:
human TfR = target: T1, human TfR (Homo sapiens, UniProt P02786); test: Flow cytometry apparent Kd (Kd app) on CHO cells expressing hTfR fused to EGFP; type: binding; conditions: bioconjugates (siGFPst1, NODAGA, 68Ga), 2 µM to 30 pM, 1 hr at 4°C
T1 construct: expressed in transfected cells
T1 sequence (P02786 whole entry, the tested form may be a part): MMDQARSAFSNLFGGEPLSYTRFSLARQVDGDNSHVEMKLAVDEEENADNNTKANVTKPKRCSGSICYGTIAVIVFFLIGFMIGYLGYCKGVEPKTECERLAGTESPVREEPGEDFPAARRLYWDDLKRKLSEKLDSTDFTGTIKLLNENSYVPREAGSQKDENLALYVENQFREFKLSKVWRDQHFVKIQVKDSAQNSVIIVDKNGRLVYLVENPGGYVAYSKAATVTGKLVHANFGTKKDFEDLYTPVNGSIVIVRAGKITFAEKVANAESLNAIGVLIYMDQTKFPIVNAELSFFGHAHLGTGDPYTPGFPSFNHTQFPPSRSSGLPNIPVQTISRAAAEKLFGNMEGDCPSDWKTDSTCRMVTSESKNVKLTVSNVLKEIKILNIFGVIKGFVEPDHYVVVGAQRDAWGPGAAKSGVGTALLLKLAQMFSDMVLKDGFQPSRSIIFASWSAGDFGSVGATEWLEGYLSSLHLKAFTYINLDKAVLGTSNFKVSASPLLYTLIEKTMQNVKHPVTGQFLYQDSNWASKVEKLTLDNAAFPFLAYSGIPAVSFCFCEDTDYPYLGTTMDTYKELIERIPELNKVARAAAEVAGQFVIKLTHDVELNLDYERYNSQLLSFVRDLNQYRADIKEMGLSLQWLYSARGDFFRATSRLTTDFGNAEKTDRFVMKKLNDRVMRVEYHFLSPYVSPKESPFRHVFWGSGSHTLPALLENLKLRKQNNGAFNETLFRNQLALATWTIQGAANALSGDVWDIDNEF
Experimental: After one wash in PBS/BSA 2%, cells were incubated for 1 hr with an anti-6His tag antibody (mouse), washed twice with PBS/BSA 2%, and incubated for 45 min with an Alexa647-conjugated anti-mouse secondary antibody. […] No labeling of the CHO WT control cells was detected with all the tested VHHs (not shown).
After one wash in PBS/BSA 2%, cells were incubated for 1 hr with an anti-6His tag antibody (mouse), washed twice with PBS/BSA 2%, and incubated for 45 min with an Alexa647-conjugated anti-mouse secondary antibody. […] Fluorescence levels were assessed using an Attune NxT Flow Cytometer (Thermo Fisher Scientific). […] No labeling of the CHO WT control cells was detected with all the tested VHHs (not shown).
The binding properties of VHHs with affinity for the TfR from different species (i.e., human (h), mouse (m) and rhesus monkey (rh)) were tested using flow cytometry, and apparent affinities (Kd app) were determined. […] CHO cell lines expressing the hTfR, mTfR or rhTfR fused to EGFP were saturated with PBS/BSA 2% solution during 30 min to avoid nonspecific binding, followed by incubation with purified VHHs at increasing concentrations for 1 hr. After one wash in PBS/BSA 2%, cells were incubated for 1 hr with an anti-6His tag antibody (mouse), washed twice with PBS/BSA 2%, and incubated for 1 hr with an Alexa647-conjugated anti-mouse secondary antibody. After two last washes in PBS/BSA 2%, cells were fixed by incubation for 15 min with PBS/PFA 2%, washed once with PBS and finally resuspended in PBS. Fluorescence levels were assessed using an Attune NxT flow cytometer (Thermo Fisher Scientific).

GFP [1] = conditions: for reduction of GFP protein levels: 120 hrs at 37°C
Experimental: Third, the ability of the VHH A, once conjugated to siGFPst1, to trigger hTfR-mediated endocytosis and subsequent delivery into the cytosol of target cells in pharmacological amounts was assessed. The VHH A-siGFPst1 or the control VHH Z-siGFPst1 bioconjugates were incubated on CHO-hTfR-GFP cells at 1 µM during 120 hrs at 37°C to allow free uptake, delivery to the cytosol and gene silencing to take place at the mRNA transcript and protein levels. […] Next, the VHH A-siGFPst1 bioconjugate was incubated on CHO-hTfR-GFP cells at concentrations ranging from 3 µM to 10 pM during 120 hrs.
Fifth, the TfR-mediated GFP-silencing effect of the VHH A-siGFPst1 bioconjugate was evaluated using a pulse-chase procedure. CHO-hTfR-GFP cells were exposed to VHH A-siGFPst1 at concentrations ranging from 300 nM to 1 pM during a short duration (6 hours), followed by chase in ligand-free medium up to a total duration of 120 hrs.
Finally, the ability of the VHH B to trigger hTfR-mediated endocytosis and subsequent gene silencing was evaluated by incubating the VHH B-siGFPst1 bioconjugate on CHO-hTfR-GFP cells at 30 nM during 120 hrs. […] To the best of our knowledge, receptor-mediated hepatocyte uptake through the asialoglycoprotein receptor (ASGPR) using triantennary GalNAc as a targeting ligand is the only ligand/receptor system able to trigger specific and efficient gene silencing at nanomolar concentrations. However, the use of this system for in vivo therapeutic applications with therapeutic nucleic acids is restricted to hepatic targets, since ASGPR is expressed in vivo exclusively in hepatocytes.

GFP [2] = test system: GFP
Experimental: Second, the intrinsic silencing activity of the VHH-siGFPst1 bioconjugate was assessed in living CHO cell lines stably expressing the TfR fused to EGFP (CHO-hTfR-EGFP cells) by transfection of the conjugate at 25 nM using Dharmafect 1 (Dharmacon) for direct delivery into the cytosol. The total cellular amount of GFP was quantified 72 hours post-transfection using flow cytometry. […] In another series of experiments, the VHH A-siGFPst1 conjugate was transfected on CHO-hTfR-EGFP cells at concentrations ranging from 10 nM to 1 pM and the total cellular amount of GFP was quantified 120 hours post-transfection using flow cytometry.

B1: VHH A-NODAGA: VHH A-azide reacted with NODAGA-BCN (conjugate)
VHH: EVQLVESGGGVVQPGGSLKLSCVASGTDFSINFIRWYRQAPGKQREFVAGFTATGNTNYADSMKGRFTISRDNTKNAVYLQIDSLKPEDTAVYYCYMLDKWGQGTQVTVSSAAAEQKLISEEDLNGAAHHHHHHGSAAAHHHHHHGGGLQR
apparent hTfR-binding affinity (Kd app) (human TfR): low nanomolar range

B2: VHH A-68Ga: VHH A-NODAGA radiolabeled using 68Ga chloride (conjugate)
VHH: EVQLVESGGGVVQPGGSLKLSCVASGTDFSINFIRWYRQAPGKQREFVAGFTATGNTNYADSMKGRFTISRDNTKNAVYLQIDSLKPEDTAVYYCYMLDKWGQGTQVTVSSAAAEQKLISEEDLNGAAHHHHHHGSAAAHHHHHHGGGLQR
apparent hTfR-binding affinity (Kd app) (human TfR): low nanomolar range

B3: VHH B-siGFPst1: siGFPst1 conjugated to VHH B (conjugate)
VHH: EVQLVESGGGVVQPGGSLRLSCAASGEIFSINFMRWYRQAPGKQREWVAGFTRDGSTNYPDSAKGRFTISRDNAKNTVYLQIDSLKPEDTAVYYCYMLDTWGQGTQVTVSSAAAEQKLISEEDLNGAAHHHHHHGS
reduction of GFP protein levels (GFP [1]; free uptake, 30 nM): ca. -60% | apparent hTfR-binding affinity (Kd app) (human TfR): low nanomolar range

B4: VHH A-siGFPst1: siGFPst1 conjugated to a tagged VHH A (conjugate)
VHH: EVQLVESGGGVVQPGGSLKLSCVASGTDFSINFIRWYRQAPGKQREFVAGFTATGNTNYADSMKGRFTISRDNTKNAVYLQIDSLKPEDTAVYYCYMLDKWGQGTQVTVSSAAAEQKLISEEDLNGAAHHHHHHGS
GFP protein levels, % of the control levels (GFP [1]; 30 nM with 100X excess of free VHH A, 120 hrs): 85% | GFP protein levels, % of the control levels (GFP [1]; 30 nM with 100X excess of free VHH B, 120 hrs): 96% | competition of the silencing effect (GFP [1]; 30 nM with 100X excess of irrelevant VHH Z, 120 hrs): no competition | reduction of GFP protein levels (GFP [1]; free uptake, 30 nM): ca. 60% | reduction of GFP protein levels (GFP [1]; free uptake, 1 µM): ca. -70% | maximum silencing efficiency (GFP [1]; free uptake, continuous 120 hrs): -61.6 ± 2.9% | IC50 (GFP [2]; read-out: IC50 (reduction of GFP protein levels), transfection 10 nM to 1 pM, 120 hours): 0.0504 nM | maximum silencing efficiency (GFP [2]; transfection 10 nM to 1 pM, 120 hours): -90.2% | reduction of GFP protein levels (GFP [2]; transfection at 25 nM, 72 hours post-transfection): ca. 85% | apparent hTfR-binding affinity (Kd app) (human TfR): low nanomolar range
